Reference: article PMC314469, “Protein Interaction Networks by Proteome Peptide Scanning” (PLoS Biology, 2004)

T1: Yhr016c SH3 (YSC84_YEAST), P32793
T1 chain: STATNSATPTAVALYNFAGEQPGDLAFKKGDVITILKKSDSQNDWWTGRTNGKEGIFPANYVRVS

T2: Rvs167 SH3 (RV167_YEAST), P39743
T2 chain: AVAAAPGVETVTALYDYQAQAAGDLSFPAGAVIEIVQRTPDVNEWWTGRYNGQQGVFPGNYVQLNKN

T3: Yfr024 SH3 (LSB3_YEAST), P43603
T3 chain: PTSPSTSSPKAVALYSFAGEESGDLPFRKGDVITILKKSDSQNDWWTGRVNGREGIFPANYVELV

T4: Boi2 SH3 (BOI2_YEAST), P39969
T4 chain: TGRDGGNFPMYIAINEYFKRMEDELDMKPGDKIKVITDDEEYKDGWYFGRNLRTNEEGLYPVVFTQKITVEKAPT

T5: Boi1 SH3 (BOI1_YEAST), P38041
T5 chain: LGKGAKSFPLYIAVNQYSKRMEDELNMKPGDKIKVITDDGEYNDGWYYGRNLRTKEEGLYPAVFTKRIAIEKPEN


Key:
Test in all cases: SPOT array
[1] = target: T1, Yhr016c SH3 (YSC84_YEAST), P32793
[2] = target: T2, Rvs167 SH3 (RV167_YEAST), P39743
[3] = target: T3, Yfr024 SH3 (LSB3_YEAST), P43603
[4] = target: T4, Boi2 SH3 (BOI2_YEAST), P39969
[5] = target: T5, Boi1 SH3 (BOI1_YEAST), P38041

Row | Binder | normalised SPOT signal, Boehringer light units (BLU); mean over the file's lines of this peptide [1] | normalised SPOT signal, Boehringer light units (BLU); mean over the file's lines of this peptide [2] | normalised SPOT signal, Boehringer light units (BLU); mean over the file's lines of this peptide [3] | normalised SPOT signal, Boehringer light units (BLU); mean over the file's lines of this peptide [4] | normalised SPOT signal, Boehringer light units (BLU); mean over the file's lines of this peptide [5]
1 | KLKPSLPNKLVGKY [YPL242C 77-90] | 0 | 45.3 | 3700 | 34.1 | 9.1
2 | KLPPRLPHRAAQRR [YIR018W 29-42] | 21700 | 11100 | 30600 | 219 | 20000
3 | KLRPDLPVKNFVVK [YFR030W 641-654] | 95.4 | 86.7 | 10700 | 15.3 | 239
4 | KMFPFNPAKIKKDD [YLR115W 535-548] | 404 | 425 | 2490 | 343 | 112
5 | KMTPSTPVRSISPI [YJR092W 851-864] | 2960 | 280 | 13400 | 71.2 | 181
6 | KNFPTLPSKINSRH [YLL015W 63-76] | 151 | 35.2 | 9910 | 25.8 | 244
7 | KNLPLNPSKKLEGK [YDL027C 313-326] | 61.3 | 67.9 | 98.6 | 54.4 | 309
8 | KNLPTIPIRLSGID [YGL085W 143-156] | 3830 | 29100 | 10800 | 45.2 | 2120
9 | KNSPLAPIKKNVEL [YLL021W 1085-1098] | 15.7 | 26.7 | 252 | 33.5 | 180
10 | KPDPESPSKLRHYE [YBL101C 851-864] | 241 | 22.9 | 41.3 | 58.5 | 69.8
11 | KPKPPKPIKYHFED [YMR044W 286-299] | 124 | 6.8 | 249 | 52.1 | 154
